Measured values published in article PMC12739106, “Phosphate deficiency reduces nodule formation through a phosphate starvation response-like protein in Phaseolus vulgaris”.

Target: T1, PvPHR-L7 (formerly PvPHR1) (Phaseolus vulgaris, UniProt B4YEQ7 1-327)
T1 sequence: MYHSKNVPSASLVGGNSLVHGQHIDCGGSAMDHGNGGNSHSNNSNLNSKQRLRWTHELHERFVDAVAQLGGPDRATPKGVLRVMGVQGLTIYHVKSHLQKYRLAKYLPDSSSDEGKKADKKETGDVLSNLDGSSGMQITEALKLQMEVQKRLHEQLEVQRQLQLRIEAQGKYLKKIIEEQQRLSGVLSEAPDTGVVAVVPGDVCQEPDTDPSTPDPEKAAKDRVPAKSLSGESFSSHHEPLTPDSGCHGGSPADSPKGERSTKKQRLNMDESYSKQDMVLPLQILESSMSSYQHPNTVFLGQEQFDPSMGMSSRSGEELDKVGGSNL
Test: EMSA; poly(dI-dC); outcompeted by unlabeled same-sequence probe (50, 100 or 200 nM); LightShift Chemiluminescent EMSA kit, 1x binding buffer, 50 ng/ul poly(dI-dC), 1 unit protein, 0.1 'mmol' biotin probe, unlabeled competitor 5, 10, 20 'mmol' (legend: 50, 100, 200 nM); salt, pH and temperature not stated
Conditions: protein: recombinant; tags: His (pDEST17, N-terminal); chain copies: 2; 5' implied by name; blunt

| Binder | binding result |
| --- | --- |
| PvTML promoter P1BS probe (dsDNA) DNA 1: GAAATTAATATAAAAAGCATATACTAAAATTAAGCATATGTT DNA 2: AACATATGCTTAATTTTAGTATATGCTTTTTATATTAATTTC | binds |
| PvNIN promoter P1BS probe (dsDNA) DNA 1: CAATTTCATTCTATAGCATATGCAACATTTTAGACAAAATCA DNA 2: TGATTTTGTCTAAAATGTTGCATATGCTATAGAATGAAATTG | binds |
